B1: scFv; the commonest letter at each place (parent)
chain 1: EVKLDETGGGLVQPGRPMKLSCVASGFTFSDYWMNWVRQSPEKGLEWVAQIRNKPYNYETYYSDSVKGRFTISRDDSKSSVYLQMNNLRVEDMGIYYCTGSYYGMDYWGQGTSVTVS
chain 2: DVVMTQTPLSLPVSLGDQASISCRSSQSLVHSNGNTYLRWYLQKPGQSPKVLIYKVSNRFSGVPDRFSGSGSGTDFTLKISRVEAEDLGVYFCSQSTHVPWTFGGGTKLEIK

Variants of B1 are the subject of the data set “fluorescein”. Nature of the data set: Kd (Tite-Seq). The following applies: with fluorescein; format: scFv 4-4-20, heavy + light.
In data set [1] the parent is B1. Nature of the data set: yeast surface expression (ratio to wild type); higher = more expressed. The following applies: format: scFv 4-4-20, heavy + light.

Usually Kd stands for a measure of binding affinity in units of concentration. On to chain 1 F29S W33C, for which the Kd in the data set with fluorescein was no less than 10 µM. The yeast surface expression in data set [1] worked out at 0.865.
In the same order, the values of chain 1 F29S W33H are no less than 10 µM and 0.724.
In the same order, the values of chain 1 F29T Y32R are 1.14 µM and 1.06.
In the same order, the values of chain 1 F29T Y32P are no less than 10 µM and 0.901.
For the variant chain 1 G100D D106Q, the Kd in the data set with fluorescein was no less than 10 µM. Also, in data set [1], the yeast surface expression amounted to 0.17.
In the same order, the values of chain 1 G100D D106W are no less than 10 µM and 0.254.
As to chain 1 G100C S101A, the Kd with fluorescein is 0.00606 µM. Further, the yeast surface expression in data set [1] was found to be 0.711.
Turning to chain 1 G100C S101W, the Kd in the data set with fluorescein is no less than 10 µM. Also, the yeast surface expression in data set [1] amounted to 0.507.
For chain 1 G100C S101C, in that order: no less than 10 µM and 0.624.
As for chain 1 G100D W108R, the equilibrium dissociation constant (Kd) with fluorescein was no less than 10 µM. Further, the yeast surface expression in data set [1] came out at 0.146.
As for chain 1 G100E M105D, the Kd with fluorescein is no less than 10 µM. Further, the yeast surface expression in data set [1] came out at 0.296.
For chain 1 G100E W108G G109H, in that order: no less than 10 µM and 0.242.
For chain 1 G100D S101I, in that order: no less than 10 µM and 0.0999.
For chain 1 G100D S101W, in that order: no less than 10 µM and 0.171.
Take chain 1 F29V M34E: in the data set with fluorescein, the Kd is no less than 10 µM. Further, the yeast surface expression in data set [1] was 0.715.
In the same order, the values of chain 1 G100D Y107V are no less than 10 µM and 0.406.
For chain 1 G100C Y107S, in that order: 2.88 µM and 0.64.
For chain 1 G100C Y107E, in that order: no less than 10 µM and 0.6.
Take chain 1 F29W M34W: the Kd with fluorescein is no less than 10 µM. Moreover, the yeast surface expression in data set [1] was determined as 0.913.
Take chain 1 F29S V37C: the dissociation constant (Kd) with fluorescein turned out to be 0.00638 µM. The yeast surface expression in data set [1] is 0.758.
In the case of chain 1 G100A Y103L W108G, the dissociation constant Kd in the data set with fluorescein came to 5.96 µM. Besides, the yeast surface expression in data set [1] is 0.436.
For the variant chain 1 G100E S101V, the dissociation constant Kd with fluorescein was no less than 10 µM. For the same variant, the yeast surface expression in data set [1] came out at 0.225.
In the case of chain 1 G100A M105Q, in the data set with fluorescein, the Kd came out at 0.0245 µM. Besides, the yeast surface expression in data set [1] was 1.15.
For chain 1 G100D Y102S, the Kd in the data set with fluorescein is no less than 10 µM. In data set [1], the yeast surface expression turned out to be 0.289.
In the same order, the values of chain 1 G100F D106K are no less than 10 µM and 0.653.
In the same order, the values of chain 1 G100A Y103K G109T are 3.2 µM and 0.753.
In the same order, the values of chain 1 G100C G104I are no less than 10 µM and 0.267.
As to chain 1 G100C W108T, the Kd in the data set with fluorescein amounted to 0.000846 µM. In addition, the yeast surface expression in data set [1] was 0.565.
For chain 1 G100C W108L, in that order: 0.000389 µM and 0.653.
In the same order, the values of chain 1 G100C W108G are no less than 10 µM and 0.401.
For chain 1 F29W S30I, in that order: no less than 10 µM and 0.599.
Consider chain 1 G100D M105Y, for which the Kd with fluorescein was no less than 10 µM. In data set [1], the yeast surface expression worked out at 0.228.
For chain 1 F29W D31F, the Kd in the data set with fluorescein is no less than 10 µM. The yeast surface expression in data set [1] came to 0.475.
In the same order, the values of chain 1 F29W D31G are 5.37 µM and 0.567.
For chain 1 F29W D31H, in that order: 0.0221 µM and 0.626.
For chain 1 F29V N35D, in that order: no less than 10 µM and 0.862.
Turning to chain 1 F29V N35V, the Kd in the data set with fluorescein is no less than 10 µM. Also, in data set [1], the yeast surface expression was determined as 0.239.
In the same order, the values of chain 1 G100A G104L D106M are no less than 10 µM and 0.244.
For chain 1 F29Y V37P, in that order: 0.228 µM and 2.26.
For the variant chain 1 F29Y V37I, in the data set with fluorescein, the Kd was found to be 0.00194 µM. For the same variant, in data set [1], the yeast surface expression is 0.9.
In the same order, the values of chain 1 F29Y V37L are no less than 10 µM and 0.669.
For chain 1 F29V Y32S, in that order: 8.13 µM and 0.999.
For chain 1 F29V W33N, in that order: no less than 10 µM and 0.722.
Take chain 1 G100D D106G G109S: the Kd with fluorescein was no less than 10 µM. The yeast surface expression in data set [1] came out at 0.224.
In the same order, the values of chain 1 F29T Y32S W33H are no less than 10 µM and 0.659.
For chain 1 F29T D31N, in that order: 0.0189 µM and 1.01.
Turning to chain 1 F29T D31P, in the data set with fluorescein, the Kd is no less than 10 µM. For the same variant, the yeast surface expression in data set [1] turned out to be 1.06.
For chain 1 F29T D31A, in that order: 0.345 µM and 0.838.
chain 1 F29Y D31P: in the data set with fluorescein, the Kd was no less than 10 µM. Also, the yeast surface expression in data set [1] is 0.888.
Take chain 1 G100E G104I: in the data set with fluorescein, the Kd is no less than 10 µM. In addition, in data set [1], the yeast surface expression is 0.281.
As to chain 1 G100C M105F, in the data set with fluorescein, the Kd is no less than 10 µM. Besides, the yeast surface expression in data set [1] is 0.642.
In the same order, the values of chain 1 F29S W36Q are no less than 10 µM and 0.549.
For chain 1 F29W W33S, in that order: no less than 10 µM and 0.431.
In the same order, the values of chain 1 G100A S101F are no less than 10 µM and 0.652.
As to chain 1 G100A S101L, the Kd in the data set with fluorescein is no less than 10 µM. Besides, the yeast surface expression in data set [1] was 0.553.
In the same order, the values of chain 1 G100D G104A are no less than 10 µM and 0.116.
For chain 1 F29Y S30A D31M, in that order: 0.216 µM and 0.826.
In the same order, the values of chain 1 G100D Y103C are no less than 10 µM and 0.414.

Values taken from the FLAb antibody collection (doi:10.7554/elife.23156).
